T1: NU2M (Vigna radiata, UniProt E9KZK9 1-488, S19F | S103F | S104F | P119L | P121S | R123C | H132Y | P143L | S166LL | S221F | …)
T1 construct: NU2M, mitochondrially encoded core PP-module subunit of Vigna radiata complex I; 488 residues; residues 1-487 modelled; 14 TMH; the substitutions are RNA editing sites against the entry, made in the model where the density fitted the edited residue; RNA edits are natural; 'S166LL' is printed so and was read as S166L; also called Nad2 (A. thaliana name)
T1 sequence (looked up): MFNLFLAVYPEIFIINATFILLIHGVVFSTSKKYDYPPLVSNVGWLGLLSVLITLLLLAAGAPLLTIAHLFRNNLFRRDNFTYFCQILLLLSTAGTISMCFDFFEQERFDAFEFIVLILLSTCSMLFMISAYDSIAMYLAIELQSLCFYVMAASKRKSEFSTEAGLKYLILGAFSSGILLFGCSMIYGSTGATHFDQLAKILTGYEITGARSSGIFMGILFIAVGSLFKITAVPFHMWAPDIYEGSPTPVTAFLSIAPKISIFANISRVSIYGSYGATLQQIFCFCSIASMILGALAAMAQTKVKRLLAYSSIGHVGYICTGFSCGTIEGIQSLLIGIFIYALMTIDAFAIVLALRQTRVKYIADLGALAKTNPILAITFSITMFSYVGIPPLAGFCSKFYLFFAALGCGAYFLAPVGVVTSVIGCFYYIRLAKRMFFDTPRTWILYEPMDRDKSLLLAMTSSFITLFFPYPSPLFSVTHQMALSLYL

B1: CA1 (natural protein, Vigna radiata, UniProt A0A1S3VT00 1-270, looked up)
chain: MGTLGRAFYAVGFWIRETGQAIDRLGSRLQGNYLFQEQLSRHRPLMNLFDKYPSVHKDAFVAPSASLLGDVHVGPASSIWYGCVLRGDVNGIVIGSGTNIQDNSLVHVAKSNLTGKVLPTIIGDNVTVGHSAVLQGCTVEDEAFIGMGATLLDGVYVEKHAMVAAGALVRQNTRIPYGEVWGGNPAKFLRKLTEDEMAFFSQSALNYSNLAQAHAAENAKELEETEFVKVLHKKFAPRGEEYDSILDGGQETPAKLNLQDNVLLDKAPKA
notes: CA1, gamma-carbonic-anhydrase domain subunit of Vigna radiata mitochondrial complex I; 270 residues; residues 3-222 modelled, 223-233 as poly-Ala; also called carbonic-anhydrase-1 subunit; Gamma-CA 1 (A. thaliana name)
B2: NDUX1 (natural protein, Vigna radiata, UniProt A0A1S3VI15 1-101, looked up)
chain: MNTDITASTKPEYPVVDRNPPFTKVVGNFSTLDYLRFVTITGVSVTVGYLSGIKPGIRGPSMVTGGLIGVMGGFMYAYQNSAGRLMGFFPNDDEVARHNKK
notes: NDUX1, PP-module accessory subunit of Vigna radiata mitochondrial complex I, named here after Y. lipolytica NUXM; 101 residues; residues 1-100 modelled; 2 TMH; also called homologue of Y. lipolytica NUXM; 20.9 kDa (A. thaliana name)
B3: NDUC2 (natural protein, Vigna radiata, UniProt A0A1S3UPL8 1-81, looked up)
chain: MVLSATTIGALLGLGTQMYSNALRKLPYMRHPWEHVVGMGLGAVFVNQLLKWEAQVEQDLDKMLEKAKAANERRYIDGDDD
notes: NDUC2, membrane arm accessory subunit of Vigna radiata mitochondrial complex I; 81 residues; residues 5-68 modelled; 2 TMH; also called B14.5b (A. thaliana name)

Legend:
Test in all cases: cryo-EM structure; CI* (~800 kDa assembly intermediate) from V. radiata mitochondrial membranes, digitonin-extracted, amphipol A8-35-stabilised, sucrose gradient; 6 mg/ml in 20 mM HEPES, 150 mM NaCl, 1 mM EDTA, 0.1% digitonin, pH 7.8; nominal resolution 3.9 Å; interfaces of the γCA domain listed from the model with PDBePISA
Details in all cases: both partners purified
[1] = target: T1, NU2M
[2] = target: B1
[3] = target: T1, NU2M; remark: listed apart in the source

Row | Binder | binding result [1] | binding result [2] | binding result [3]
1 | B1 | binds |  | 
2 | B2 |  | binds | binds
3 | B3 |  | binds | binds
